Experimental data: the supplement of paper PMC12764529
± gives the half width of the 95% confidence interval.

Experiments:
[1] = folding stability dG unfold from chymotrypsin proteolysis; higher = more stable
In short: (§1)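 Unfolding free energy was derived, per protease or combined, by relating Bayesian-fitted K50 values from sequencing counts to a sequence-predicted unfolded-state K50 and a shared folded-state K50. The underlying digests exposed cysteine-free mini-proteins under 80 residues, in a PA-tagged cDNA display construct, to trypsin and chymotrypsin at 11 threefold-diluted concentrations and to a no-protease condition. A filter kept only designs with AlphaFold2 dimer inter-PAE above 15.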

[2] = folding stability dG unfold (combined trypsin and chymotrypsin); higher = more stable
In short: as §1

In the case of “SAGGSAGGSAGGSKIIRIKAKPNEKKEIKIDGKWYKLYADKDNPDRVYIERPDGTIDPASAGGSAGGSAGGS [r4_488_TrMRF]”, the “folding stability dG unfold” value [1] is reported as 0.685 ± 0.14 kcal/mol and the “folding stability dG unfold” value [2] is reported as 0.26 ± 0.13 kcal/mol.
For “SAGGSAGGSAGGSKRIRITIPENYRVRGPNGKQFSWNDIEELKASGFKPIEIEPLPPGASAGGSAGGSAGGS [r4_47_TrROS]”, the “folding stability dG unfold” value [1] was -1.06 ± 0.4 kcal/mol and the “folding stability dG unfold” value [2] was under -1 kcal/mol.
For “SAGGSAGGSAGGSLAPALAAAIAPLLPKDGTFVFVAEPVGDRLVIVTETRPLREDEERGSAGGSAGGSAGGS [r4_350_TrMRF]”, the “folding stability dG unfold” value [1] was 0.496 ± 0.047 kcal/mol and the “folding stability dG unfold” value [2] was -0.707 ± 0.25 kcal/mol.
For “SAGGSAGGSAGGSLEEKAEAAYKKNPTTVPVELPLPGGVPATLTVTRTSPDSLDITRTLSAGGSAGGSAGGS [r10_395_JUSTAS]”, the “folding stability dG unfold” value [1] was 0.232 ± 0.2 kcal/mol and the “folding stability dG unfold” value [2] was under -1 kcal/mol.
In the case of “SAGGSAGGSAGGSMEVVETEEPGPGEERIRIVRFKEKTIVTRTPPDGVPTSEELPISELSAGGSAGGSAGGS [r10_1075_JUSTAS]”, the “folding stability dG unfold” value [1] is reported as 0.0261 ± 0.2 kcal/mol and the “folding stability dG unfold” value [2] is reported as -0.247 ± 0.2 kcal/mol.
With “SAGGSAGGSAGGSMKKVEVEIPYSFEGPPTFNPEEIEKKLKEEGINAKIKTKYIPKSKEKSAGGSAGGSAGG [r7_355_JUSTAS]” the “folding stability dG unfold” value [1] was -0.145 ± 0.39 kcal/mol and the “folding stability dG unfold” value [2] was -0.321 ± 0.7 kcal/mol.
With “SAGGSAGGSAGGSMSTLSLTIPVGGEPVSVTVQQLYDPTKNTTTTLLPPEAAAVIARAAGSAGGSAGGSAGG [r11_91_JUSTAS]” the “folding stability dG unfold” value [1] was -0.449 ± 0.19 kcal/mol and the “folding stability dG unfold” value [2] was under -1 kcal/mol.
In the case of “SAGGSAGGSAGGSPFEGPRPVVVKPVSPEILAKTPPEEVKKRLKEELPESVTIVETNPLPSAGGSAGGSAGG [r7_487_JUSTAS]”, the “folding stability dG unfold” value [1] is reported as 0.12 ± 0.1 kcal/mol and the “folding stability dG unfold” value [2] is reported as under -1 kcal/mol.
For “SAGGSAGGSAGGSPSTRTPITVEVKSPTALSRFTYDTGLSPAEIAAPFAAGGYTVTFVSSAGGSAGGSAGGS [r10_540_JUSTAS]”, the “folding stability dG unfold” value [1] was -0.127 ± 0.22 kcal/mol and the “folding stability dG unfold” value [2] was -0.538 ± 0.16 kcal/mol.
For “SAGGSAGGSAGGSSRVLKGKDTTVVLYPDSVTFYPGSTGTPVVKSISDPEVVEEIKKLLSAGGSAGGSAGGS [r4_353_JUSTAS]”, the “folding stability dG unfold” value [1] was -0.192 ± 0.33 kcal/mol and the “folding stability dG unfold” value [2] was under -1 kcal/mol.
With “SAGGSAGGSAGGSSSSSGTTLVPVTITTETFLNDDTPVTTVTTVLKTLAPDETLADLLASAGGSAGGSAGGS [r4_283_JUSTAS]” the “folding stability dG unfold” value [1] was -0.292 ± 0.11 kcal/mol and the “folding stability dG unfold” value [2] was -0.519 ± 0.26 kcal/mol.
In the case of “SAGGSAGGSAGGSSVSVSFDPATGTRTVTYTTLDPSNGKILSSTTSTTAVALAATPAAASAGGSAGGSAGGS [r10_842_JUSTAS]”, the “folding stability dG unfold” value [1] is reported as 0.661 ± 0.058 kcal/mol and the “folding stability dG unfold” value [2] is reported as -0.288 ± 0.17 kcal/mol.
With “SAGGSAGGSAGGTIQWDPANGRIKITNPNGKKKTIPIPPDDPEEFLKELKDNGIDRIEPVSAGGSAGGSAGG [r7_139_TrROS]” the “folding stability dG unfold” value [1] was 0.964 ± 0.075 kcal/mol and the “folding stability dG unfold” value [2] was 0.38 ± 0.25 kcal/mol.
With “SAGGSAGGSAGGTKELAEALRDAGYEVEYDKATNKIEVRPKPKPKPVVKTVTFVPKEDLSAGGSAGGSAGGS [r10_1173_TrROS_Hall]” the “folding stability dG unfold” value [1] was -0.433 ± 0.11 kcal/mol and the “folding stability dG unfold” value [2] was -0.51 ± 0.36 kcal/mol.
With “SAGGSAGGSAGGTLIKTSDDTIVIPIGDPEEAEKAAEEIKAKLGDVDLKVEILSPEELRGSAGGSAGGSAGG [r7_645_JUSTAS]” the “folding stability dG unfold” value [1] was 0.487 ± 0.032 kcal/mol and the “folding stability dG unfold” value [2] was 0.13 ± 0.14 kcal/mol.
With “SAGGSAGGSAGGTTLLFPDKIIRTLPLPPGAVFDVPPGLTLEGVEEDPSTGTLTVTVKGLSAGGSAGGSAGG [r11_942_JUSTAS]” the “folding stability dG unfold” value [1] was 0.0814 ± 0.14 kcal/mol and the “folding stability dG unfold” value [2] was -0.211 ± 0.24 kcal/mol.
In the case of “SAGGSAGGSAGGTVVPEKEARELARKVAEKGEPIEVEIGDPGPKKPRTVLITPEDLEERSAGGSAGGSAGGS [r10_779_JUSTAS]”, the “folding stability dG unfold” value [1] is reported as -0.219 ± 0.18 kcal/mol and the “folding stability dG unfold” value [2] is reported as under -1 kcal/mol.
In the case of “SAGGSAGGSAGGWTLEELKNAPPGEPVTITIPMYSPNGDKKQPMRIRITPDDGEIEIEMSAGGSAGGSAGGS [r10_394_TrROS]”, the “folding stability dG unfold” value [1] is reported as 0.908 ± 0.13 kcal/mol and the “folding stability dG unfold” value [2] is reported as 0.406 ± 0.15 kcal/mol.
With “SAGGSAGGSAGIIEFPFPLNEAKKLAENLPPGFRPVNVEPDPDNDRIWVIIQVVPPKKGKSAGGSAGGSAGG [r17_98_TrROS]” the “folding stability dG unfold” value [1] was -0.992 ± 0.73 kcal/mol and the “folding stability dG unfold” value [2] was under -1 kcal/mol.
In the case of “SAGGSAGGSAGKEPILAIPNPEFPDVVIIKTKDGVRAVPVEELKELDIDAVMSLEEALASSAGGSAGGSAGG [r17_88_TrMRF]”, the “folding stability dG unfold” value [1] is reported as 0.731 ± 0.067 kcal/mol and the “folding stability dG unfold” value [2] is reported as 0.174 ± 0.2 kcal/mol.
For “SAGGSAGGSAGKKKIHVHQYPDGNYHIRVPNGKSYHFPPEDADELVEELGIDEVEIHPMDSAGGSAGGSAGG [r11_312_TrROS]”, the “folding stability dG unfold” value [1] was 0.0552 ± 0.089 kcal/mol and the “folding stability dG unfold” value [2] was -0.407 ± 0.16 kcal/mol.
With “SAGGSAGGSAGKKKITIDYEEIREKFGLPPDDIDNMSMSRVMNYAKPLAKEGKIDEIEISSAGGSAGGSAGG [r11_80_TrROS]” the “folding stability dG unfold” value [1] was -0.291 ± 0.53 kcal/mol and the “folding stability dG unfold” value [2] was under -1 kcal/mol.
In the case of “SAGGSAGGSAGKLRFRRVGLVLELNEDGSLSLSPIEEEVEVEVPEPLPVGLGLGGKPYLLSAGGSAGGSAGG [r17_418_TrMRF]”, the “folding stability dG unfold” value [1] is reported as 0.325 ± 0.27 kcal/mol and the “folding stability dG unfold” value [2] is reported as -0.0408 ± 0.22 kcal/mol.
For “SAGGSAGGSAGKNNKVKLTYTIEVEGEGKPKKIKIEYYLSPNGIPEPPELIKSKAGGLAKSAGGSAGGSAGG [r17_373_TrMRF]”, the “folding stability dG unfold” value [1] was 0.306 ± 0.13 kcal/mol and the “folding stability dG unfold” value [2] was -0.191 ± 0.21 kcal/mol.
In the case of “SAGGSAGGSAGMEPLKEIEVPFPGGWSIEIEVYPNGIKIEPNPNFDNPQMKKRILDALNPSAGGSAGGSAGG [r11_372_TrROS]”, the “folding stability dG unfold” value [1] is reported as -0.0677 ± 0.26 kcal/mol and the “folding stability dG unfold” value [2] is reported as -0.445 ± 0.42 kcal/mol.
For “SAGGSAGGSAGMESKVVTLDVPLAPDETAEAVAARLRAADPAAVLLGYDPAAGRVTVRVASAGGSAGGSAGG [r11_465_JUSTAS]”, the “folding stability dG unfold” value [1] was 0.411 ± 0.078 kcal/mol and the “folding stability dG unfold” value [2] was -0.332 ± 0.087 kcal/mol.
In the case of “SAGGSAGGSAGMIQIDQDPNNGNYKVKIRNPDGKPREFNVDSPDELEDAADKNGFPAEPISAGGSAGGSAGG [r11_1049_TrROS]”, the “folding stability dG unfold” value [1] is reported as -0.0704 ± 0.14 kcal/mol and the “folding stability dG unfold” value [2] is reported as -0.512 ± 0.41 kcal/mol.
For “SAGGSAGGSAGMIVVPPEDLENLPPWYSVEPGEDSVTVWDESNPVVVPRDEPALVSPPERSAGGSAGGSAGG [r17_91_JUSTAS]”, the “folding stability dG unfold” value [1] was 0.72 ± 0.079 kcal/mol and the “folding stability dG unfold” value [2] was -0.136 ± 0.22 kcal/mol.
With “SAGGSAGGSAGMKTKATFVIDNEEYDATIDPGTPKNSTATVTKPDSTTTITVTNIKLFPESAGGSAGGSAGG [r11_247_JUSTAS]” the “folding stability dG unfold” value [1] was 0.897 ± 0.062 kcal/mol and the “folding stability dG unfold” value [2] was 0.346 ± 0.11 kcal/mol.
With “SAGGSAGGSAGMNIVVSSEEEAEKAIKELAKKLGKPNNLKNPKVTVIPLEPTPTGGLKKKSAGGSAGGSAGG [r17_237_JUSTAS]” the “folding stability dG unfold” value [1] was 0.226 ± 0.077 kcal/mol and the “folding stability dG unfold” value [2] was -0.301 ± 0.16 kcal/mol.
In the case of “SAGGSAGGSAGMRITVEPDRVVVHPPGGEEIVMPAPEWGEEEVLALAEEHPDVEVEPVPPSAGGSAGGSAGG [r17_545_JUSTAS]”, the “folding stability dG unfold” value [1] is reported as -1.01 ± 0.37 kcal/mol and the “folding stability dG unfold” value [2] is reported as under -1 kcal/mol.
With “SAGGSAGGSAGMVIELPVPGTMSPEEARARAEEVAEELARRTGRPVEVREVRLVTPEELASAGGSAGGSAGG [r17_68_JUSTAS]” the “folding stability dG unfold” value [1] was -0.364 ± 0.086 kcal/mol and the “folding stability dG unfold” value [2] was -0.733 ± 0.4 kcal/mol.
In the case of “SAGGSAGGSAGMVIKSPDGRIIEVEEEEEGEKLKIKRITYVGDKYTPSEEEIEVPPVDLKSAGGSAGGSAGG [r11_106_JUSTAS]”, the “folding stability dG unfold” value [1] is reported as -0.201 ± 0.54 kcal/mol and the “folding stability dG unfold” value [2] is reported as under -1 kcal/mol.
In the case of “SAGGSAGGSAGMYDVGFIEAPKDTAYIKFPEINYIAEIKLDPKNGGFSLDEIKLYPLNTKSAGGSAGGSAGG [r11_352_TrMRF]”, the “folding stability dG unfold” value [1] is reported as 0.521 ± 0.067 kcal/mol and the “folding stability dG unfold” value [2] is reported as 0.107 ± 0.11 kcal/mol.
For “SAGGSAGGSAGNPKYVMVPLKFPDGNPVNIMVSDDEIHIYDMGPNKWRWIPADDLPPEAFSAGGSAGGSAGG [r11_155_TrROS]”, the “folding stability dG unfold” value [1] was 0.666 ± 0.15 kcal/mol and the “folding stability dG unfold” value [2] was 0.215 ± 0.15 kcal/mol.
With “SAGGSAGGSAGPPPMEPIFTFTNPKEPVTIYRSKDPGNYHIYDPPNGKERTIPPNDPNFFSAGGSAGGSAGG [r11_1007_TrROS]” the “folding stability dG unfold” value [1] was -0.0661 ± 0.55 kcal/mol and the “folding stability dG unfold” value [2] was under -1 kcal/mol.
